B1: BNN-1000-1000 (antibody, human IgG1, kappa, L234A L235A, V domains shown)
VH: QVQLQESGPGLVKPSQSLSITCTVSGFPLGAFGVHWVRQSPGKGLEWLGVIWKGGNTDYNAAFKSRLRITKDNSKSQVFFRMNSLQTDDTATYYCAKVNLADAMDYWGQGTTVTVSS
VL: DIQMTQSPASLSASVGETVTITCRASGNAHGYLAWYQQKPGKAPKLLIYNTKTLAEGVPSRFSGSGSGTQFSLKINSAQPEDFGNYYCQHHYDLPRTFGGGTKVEIKR
B2: HNN-1000-1000 (antibody, V domains shown)
VH: QVQLQQSGPEVVKPGASVKMSCKASGYTFTSYVIHWVRQKPGQGLDWIGYINPYNDGTDYDEKFKGKATLTSDTSTSTAYMELSSLRSEDTAVYYCAREKDNYATGAWFAYWGQGTLVTVSS
VL: DIVMTQSPDSLAVSLGERVTMNCKSSQSLLYSTNQKNYLAWYQQKPGQSPKLLIYWASTRESGVPDRFSGSGSGTDFTLTISSVQAEDVAVYYCQQYYSYRTFGGGTKLEIK

Key:
[1] = biological target: human CCR5 (human, UniProt P51681 1-352); test: cell-based or functional assay
[2] = biological target: human CD4 (human, UniProt P01730 26-458); test: cell-based or functional assay

human CCR5, sequence (P51681 whole entry): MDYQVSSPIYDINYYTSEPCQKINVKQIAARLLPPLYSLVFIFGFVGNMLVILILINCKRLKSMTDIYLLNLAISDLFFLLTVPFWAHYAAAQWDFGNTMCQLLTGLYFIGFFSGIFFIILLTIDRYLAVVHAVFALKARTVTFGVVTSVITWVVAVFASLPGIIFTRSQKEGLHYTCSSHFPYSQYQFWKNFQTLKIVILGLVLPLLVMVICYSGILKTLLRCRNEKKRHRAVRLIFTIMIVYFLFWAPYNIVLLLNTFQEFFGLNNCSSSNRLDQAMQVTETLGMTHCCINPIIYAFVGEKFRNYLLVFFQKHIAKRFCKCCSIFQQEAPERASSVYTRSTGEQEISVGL

| Binder | IC50, PBMC antiviral assay (HIV-1 NLBal, p24 ELISA) [1] [nM] | IC50, PBMC antiviral assay (HIV-1 NLBal, p24 ELISA) [2] [nM] |
| --- | --- | --- |
| B1 | 1.08 |  |
| B2 |  | 0.348 |
